Test results from the array DNA melting data of Ke et al..

assay: melting temperature; melt of duplexes; conditions: sodium 0.0675 M; strand 1 µM

Substance | Tm [°C]
CGACGTGCGGAATGTGCTG+CAGCACATATAGCACGTCG ((((((((...((((((((+))))))))...)))))))) | 55
CGACGTGCATAATGTGCTG+CAGCACATTCGGCACGTCG ((((((((..(((((((((+)))))))))..)))))))) | 51.8
CGACGTGCGAAATGTGCTG+CAGCACATGAGGCACGTCG ((((((((...((((((((+))))))))...)))))))) | 54.5
CGACGTGCCCGATGTGCTG+CAGCACATAACGCACGTCG ((((((((...((((((((+))))))))...)))))))) | 47.6
CGACGTGCCGTATGTGCTG+CAGCACATGGCGCACGTCG ((((((((...((((((((+))))))))...)))))))) | 50.3
CGACGTGCGTGATGTGCTG+CAGCACATGCCGCACGTCG (((((((((..((((((((+))))))))..))))))))) | 54.7
CGACGTGCCTCATGTGCTG+CAGCACATAGTGCACGTCG ((((((((...((((((((+))))))))...)))))))) | 45.9
CGACGTGCCACATGTGCTG+CAGCACATAATGCACGTCG ((((((((...((((((((+))))))))...)))))))) | 47.5
CGACGTGCGGAATGTGCTG+CAGCACATGGCGCACGTCG (((((((((..((((((((+))))))))..))))))))) | 58.4
CGACGTGCTGTATGTGCTG+CAGCACATACCGCACGTCG ((((((((.((((((((((+)))))))))).)))))))) | 55.2
CGACGTGCCGTATGTGCTG+CAGCACATCGTGCACGTCG ((((((((...((((((((+))))))))...)))))))) | 51
CGACGTGCTGGATGTGCTG+CAGCACATCGAGCACGTCG (((((((((.(((((((((+))))))))).))))))))) | 59.3
CGACGTGCAAGATGTGCTG+CAGCACATCCGGCACGTCG ((((((((..(((((((((+)))))))))..)))))))) | 54.9
CGACGTGCGGGATGTGCTG+CAGCACATATTGCACGTCG ((((((((...((((((((+))))))))...)))))))) | 51.4
CGACGTGCGCTATGTGCTG+CAGCACATGACGCACGTCG (((((((((..((((((((+))))))))..))))))))) | 52.4
CGACGTGCCGGATGTGCTG+CAGCACATTGCGCACGTCG ((((((((...((((((((+))))))))...)))))))) | 49.9
CGACGTGCATTATGTGCTG+CAGCACATCCTGCACGTCG (((((((((..((((((((+))))))))..))))))))) | 49.9
CGACGTGCAAAATGTGCTG+CAGCACATTTCGCACGTCG ((((((((.((((((((((+)))))))))).)))))))) | 55.4
CGACGTGCGTAATGTGCTG+CAGCACATGGAGCACGTCG ((((((((...((((((((+))))))))...)))))))) | 60.7
CGACGTGCAGAATGTGCTG+CAGCACATGGCGCACGTCG ((((((((...((((((((+))))))))...)))))))) | 55.9
CGACGTGCCATATGTGCTG+CAGCACATTATGCACGTCG ((((((((...((((((((+))))))))...)))))))) | 50.3
CGACGTGCCCAATGTGCTG+CAGCACATCGAGCACGTCG ((((((((.(.((((((((+)))))))).).)))))))) | 50.3
CGACGTGCTCAATGTGCTG+CAGCACATTGGGCACGTCG ((((((((.((((((((((+)))))))))).)))))))) | 60.1
CGACGTGCAAAATGTGCTG+CAGCACATGTAGCACGTCG ((((((((.(.((((((((+)))))))).).)))))))) | 53.1

Substance | Tm [°C]
CGACGTGCGGCATGTGCTG+CAGCACATTCTGCACGTCG ((((((((.(.((((((((+)))))))).).)))))))) | 53.1
CGACGTGCTCCATGTGCTG+CAGCACATAGAGCACGTCG ((((((((((.((((((((+)))))))).)))))))))) | 56.2
CGACGTGCTAAATGTGCTG+CAGCACATAGTGCACGTCG ((((((((...((((((((+))))))))...)))))))) | 45.2
CGACGTGCCTGATGTGCTG+CAGCACATTGAGCACGTCG ((((((((...((((((((+))))))))...)))))))) | 51
CGACGTGCCGGATGTGCTG+CAGCACATCCTGCACGTCG ((((((((.((((((((((+)))))))))).)))))))) | 58.9
CGACGTGCACTATGTGCTG+CAGCACATACGGCACGTCG ((((((((..(((((((((+)))))))))..)))))))) | 46
CGACGTGCTGTATGTGCTG+CAGCACATGGAGCACGTCG (((((((((..((((((((+))))))))..))))))))) | 55
CGACGTGCGTGATGTGCTG+CAGCACATGGTGCACGTCG ((((((((...((((((((+))))))))...)))))))) | 47.8
CGACGTGCGACATGTGCTG+CAGCACATCGTGCACGTCG ((((((((...((((((((+))))))))...)))))))) | 47.6
CGACGTGCTATATGTGCTG+CAGCACATCTCGCACGTCG ((((((((.(.((((((((+)))))))).).)))))))) | 48.3
CGACGTGCTAAATGTGCTG+CAGCACATATGGCACGTCG ((((((((.(.((((((((+)))))))).).)))))))) | 52
CGACGTGCTACATGTGCTG+CAGCACATCAAGCACGTCG (((((((((..((((((((+))))))))..))))))))) | 50.6
CGACGTGCGGTATGTGCTG+CAGCACATGGCGCACGTCG (((((((((..((((((((+))))))))..))))))))) | 59.9
CGACGTGCGCCATGTGCTG+CAGCACATATAGCACGTCG ((((((((...((((((((+))))))))...)))))))) | 52.4
CGACGTGCCGAATGTGCTG+CAGCACATTGTGCACGTCG ((((((((..(((((((((+)))))))))..)))))))) | 50.1
CGACGTGCTCAATGTGCTG+CAGCACATTCTGCACGTCG ((((((((..(((((((((+)))))))))..)))))))) | 50.8
CGACGTGCTGAATGTGCTG+CAGCACATAATGCACGTCG ((((((((...((((((((+))))))))...)))))))) | 51
CGACGTGCGCAATGTGCTG+CAGCACATTAGGCACGTCG ((((((((..(((((((((+)))))))))..)))))))) | 52.7
CGACGTGCAAAATGTGCTG+CAGCACATGCAGCACGTCG ((((((((...((((((((+))))))))...)))))))) | 53.8
CGACGTGCTAGATGTGCTG+CAGCACATTGAGCACGTCG (((((((((..((((((((+))))))))..))))))))) | 54
CGACGTGCCATATGTGCTG+CAGCACATATAGCACGTCG ((((((((.((((((((((+)))))))))).)))))))) | 53.2
CGACGTGCCCAATGTGCTG+CAGCACATGTCGCACGTCG ((((((((...((((((((+))))))))...)))))))) | 49.5
CGACGTGCTCTATGTGCTG+CAGCACATGTCGCACGTCG ((((((((...((((((((+))))))))...)))))))) | 48.1
CGACGTGCTAGATGTGCTG+CAGCACATTAAGCACGTCG (((((((((..((((((((+))))))))..))))))))) | 53.3

Substance | Tm [°C]
CGACGTGCAACATGTGCTG+CAGCACATAGGGCACGTCG ((((((((...((((((((+))))))))...)))))))) | 49.1
CGACGTGCTTTATGTGCTG+CAGCACATAGAGCACGTCG (((((((((.(((((((((+))))))))).))))))))) | 55.2
CGACGTGCCTAATGTGCTG+CAGCACATGTAGCACGTCG ((((((((...((((((((+))))))))...)))))))) | 51.8
CGACGTGCTAAATGTGCTG+CAGCACATCGCGCACGTCG ((((((((...((((((((+))))))))...)))))))) | 47.5
CGACGTGCGCAATGTGCTG+CAGCACATTTCGCACGTCG (((((((((.(((((((((+))))))))).))))))))) | 57.5
CGACGTGCAGGATGTGCTG+CAGCACATTCCGCACGTCG ((((((((.(.((((((((+)))))))).).)))))))) | 54.6
CGACGTGCGCAATGTGCTG+CAGCACATAGTGCACGTCG ((((((((.(.((((((((+)))))))).).)))))))) | 51.6
CGACGTGCGTCATGTGCTG+CAGCACATAGTGCACGTCG ((((((((...((((((((+))))))))...)))))))) | 45.9
CGACGTGCTAAATGTGCTG+CAGCACATCCTGCACGTCG ((((((((...((((((((+))))))))...)))))))) | 49
CGACGTGCCTGATGTGCTG+CAGCACATCATGCACGTCG ((((((((.((((((((((+)))))))))).)))))))) | 56.9
CGACGTGCATTATGTGCTG+CAGCACATGTAGCACGTCG ((((((((...((((((((+))))))))...)))))))) | 49.4
CGACGTGCCTCATGTGCTG+CAGCACATGTAGCACGTCG ((((((((..(((((((((+)))))))))..)))))))) | 52.9
CGACGTGCGAAATGTGCTG+CAGCACATTTGGCACGTCG ((((((((.((((((((((+)))))))))).)))))))) | 57.3
CGACGTGCACAATGTGCTG+CAGCACATCCGGCACGTCG ((((((((...((((((((+))))))))...)))))))) | 46.1
CGACGTGCGAGATGTGCTG+CAGCACATGCAGCACGTCG ((((((((...((((((((+))))))))...)))))))) | 53.7
CGACGTGCCCCATGTGCTG+CAGCACATGCAGCACGTCG ((((((((..(((((((((+)))))))))..)))))))) | 51.9
CGACGTGCCGTATGTGCTG+CAGCACATTTCGCACGTCG ((((((((...((((((((+))))))))...)))))))) | 48.5
CGACGTGCCTCATGTGCTG+CAGCACATTGCGCACGTCG ((((((((...((((((((+))))))))...)))))))) | 47.5
CGACGTGCTCCATGTGCTG+CAGCACATAAGGCACGTCG ((((((((...((((((((+))))))))...)))))))) | 49
CGACGTGCGAAATGTGCTG+CAGCACATCCCGCACGTCG (((((((((..((((((((+))))))))..))))))))) | 52.9
CGACGTGCGGCATGTGCTG+CAGCACATACTGCACGTCG ((((((((.(.((((((((+)))))))).).)))))))) | 54.2
CGACGTGCTGAATGTGCTG+CAGCACATTGAGCACGTCG (((((((((.(((((((((+))))))))).))))))))) | 56.6
CGACGTGCTATATGTGCTG+CAGCACATAAAGCACGTCG (((((((((.(((((((((+))))))))).))))))))) | 55.6
CGACGTGCTCCATGTGCTG+CAGCACATATAGCACGTCG (((((((((..((((((((+))))))))..))))))))) | 50.4
